What was measured:
HLA-B*07:02 [1] = test: IEDB peptide-MHC binding, purified MHC/competitive/fluorescence; filed as Kd, often an IC50 or EC50 that approximates it; ≥ and ≤ were set here for values at or beyond the usual limits of such assays
HLA-B*07:02 [2] = test: IEDB peptide-MHC binding, purified MHC/competitive/fluorescence; ≥ and ≤ were set here for values at or beyond the usual limits of such assays
HLA-B*15:01 [3] = test: as above
HLA-A*24:02 = test: as above
HLA-B*08:01 [4] = test: as above
HLA-A*02:01 [5] = test: as above
HLA-B*15:42 = test: IEDB peptide-MHC binding, purified MHC/competitive/fluorescence; filed as Kd, often an IC50 or EC50 that approximates it; ≥ and ≤ were set here for values at or beyond the usual limits of such assays; details: source organism: Orthohantavirus tulaense
HLA-B*83:01 = test: as above; details: source organism: Orthohantavirus tulaense
HLA-A*26:01 = test: as above; details: source organism: Orthohantavirus tulaense
HLA-B*27:03 = test: as above; details: source organism: Orthohantavirus tulaense
HLA-B*15:01 [6] = test: as above
HLA-B*51:01 = test: as above
HLA-B*45:06 = test: as above; details: source organism: Orthohantavirus tulaense
HLA-A*31:01 [7] = test: as above; details: source organism: Orthohantavirus tulaense
HLA-B*46:01 [8] = test: as above; details: source organism: Orthohantavirus tulaense
HLA-B*57:01 [9] = test: as above; details: source organism: Orthohantavirus tulaense
HLA-A*69:01 [10] = test: as above; details: source organism: Orthohantavirus tulaense
HLA-B*39:01 = test: as above; details: source organism: Orthohantavirus tulaense
HLA-A*03:01 [11] = test: as above; details: source organism: Orthohantavirus tulaense
HLA-B*18:01 = test: as above; details: source organism: Orthohantavirus tulaense
HLA-A*24:03 = test: IEDB peptide-MHC binding, purified MHC/direct/fluorescence; filed as Kd, often an IC50 or EC50 that approximates it; ≥ and ≤ were set here for values at or beyond the usual limits of such assays; details: source organism: Orthohantavirus tulaense
HLA-A*02:03 = test: as above; details: source organism: Orthohantavirus tulaense
HLA-A*02:16 = test: as above; details: source organism: Orthohantavirus tulaense
HLA-A*68:02 = test: as above; details: source organism: Orthohantavirus tulaense
HLA-A*02:19 = test: as above; details: source organism: Orthohantavirus tulaense
HLA-A*02:12 = test: as above; details: source organism: Orthohantavirus tulaense
HLA-A*02:11 = test: as above; details: source organism: Orthohantavirus tulaense
HLA-B*35:01 = test: IEDB peptide-MHC binding, purified MHC/competitive/fluorescence; filed as Kd, often an IC50 or EC50 that approximates it; ≥ and ≤ were set here for values at or beyond the usual limits of such assays
HLA-B*07:02 [12] = test: IEDB peptide-MHC binding, purified MHC/direct/fluorescence; filed as Kd, often an IC50 or EC50 that approximates it; ≥ and ≤ were set here for values at or beyond the usual limits of such assays; details: source organism: Mycobacterium tuberculosis variant bovis
HLA-B*54:01 = test: IEDB peptide-MHC binding, purified MHC/competitive/radioactivity; filed as Kd, often an IC50 or EC50 that approximates it; ≥ and ≤ were set here for values at or beyond the usual limits of such assays; details: source organism: Lassa virus GA391
HLA-B*07:02 [13] = test: as above; details: source organism: Lassa virus GA391
HLA-B*53:01 = test: as above; details: source organism: Lassa virus GA391
HLA-B*27:05 = test: IEDB peptide-MHC binding, purified MHC/direct/fluorescence; filed as Kd, often an IC50 or EC50 that approximates it; ≥ and ≤ were set here for values at or beyond the usual limits of such assays; details: source organism: Mammarenavirus lassaense
HLA-A*11:01 = test: as above; details: source organism: Mammarenavirus lassaense
HLA-A*01:01 = test: as above; details: source organism: Mammarenavirus lassaense
HLA-B*48:01 = test: as above; details: source organism: Mammarenavirus lassaense
HLA-B*44:02 = test: as above; details: source organism: Mammarenavirus lassaense
HLA-B*15:01 [14] = test: as above; details: source organism: Mammarenavirus lassaense
HLA-B*58:01 = test: as above; details: source organism: Mammarenavirus lassaense
HLA-A*31:01 [15] = test: as above; details: source organism: Mammarenavirus lassaense
HLA-B*46:01 [16] = test: as above; details: source organism: Mammarenavirus lassaense
HLA-B*57:01 [17] = test: as above; details: source organism: Mammarenavirus lassaense
HLA-A*69:01 [18] = test: as above; details: source organism: Mammarenavirus lassaense
HLA-A*03:01 [19] = test: as above; details: source organism: Mammarenavirus lassaense
HLA-B*08:01 [20] = test: as above; details: source organism: Mammarenavirus lassaense
HLA-B*40:01 = test: as above; details: source organism: Mammarenavirus lassaense
HLA-A*02:01 [21] = test: as above; details: source organism: Mammarenavirus lassaense
[22] = source organism: Vaccinia virus
[23] = source organism: Orthohantavirus tulaense
[24] = source organism: Vaccinia virus Copenhagen
[25] = source organism: Bacillus cereus G9241
[26] = source organism: Mycobacterium tuberculosis H37Rv
[27] = source organism: Zaire ebolavirus
[28] = source organism: Shigella flexneri 5 str. 8401
[29] = source organism: Escherichia coli O157:H7 str. Sakai
[30] = source organism: Mammarenavirus lassaense

Sequence: APGWLIWTY
- Kd (HLA-B*07:02 [1]; source organism: human gammaherpesvirus 4): ≥ 20 µM

Sequence: GMLRFANPL
- IC50 (HLA-B*07:02 [2]; [22]): 5.38 µM
- IC50 (HLA-B*15:01 [3]; [22]): 1.69 µM
- IC50 (HLA-A*24:02; [22]): 8.07 µM
- IC50 (HLA-B*08:01 [4]; [22]): 11.8 µM
- IC50 (HLA-A*02:01 [5]; [22]): 0.651 µM

Sequence: ILMARYMSK
- Kd (HLA-B*15:42): ≥ 5 µM
- Kd (HLA-B*83:01): ≥ 5 µM
- Kd (HLA-A*26:01): ≥ 20 µM
- Kd (HLA-B*27:03): ≥ 20 µM
- Kd (HLA-B*15:01 [6]; [23]): ≥ 20 µM
- Kd (HLA-B*51:01; [23]): ≥ 20 µM
- Kd (HLA-B*45:06): ≥ 5 µM
- Kd (HLA-A*31:01 [7]): 0.0152 µM
- Kd (HLA-B*46:01 [8]): ≥ 20 µM
- Kd (HLA-B*57:01 [9]): ≥ 20 µM
- Kd (HLA-A*69:01 [10]): ≥ 20 µM
- Kd (HLA-B*39:01): ≥ 20 µM
- Kd (HLA-A*03:01 [11]): 0.0628 µM
- Kd (HLA-B*18:01): ≥ 20 µM
- Kd (HLA-A*24:03): ≥ 20 µM
- Kd (HLA-A*02:03): ≥ 20 µM
- Kd (HLA-A*02:16): ≥ 20 µM
- Kd (HLA-A*68:02): ≥ 20 µM
- Kd (HLA-A*02:19): ≥ 20 µM
- Kd (HLA-A*02:12): ≥ 20 µM
- Kd (HLA-A*02:11): ≥ 20 µM

Sequence: ILRSIEGEL
- IC50 (HLA-B*07:02 [2]; [24]): 33.9 µM
- IC50 (HLA-B*15:01 [3]; [24]): 39.8 µM
- IC50 (HLA-B*08:01 [4]; [24]): ≥ 524 µM

Sequence: INKLNGAMV
- IC50 (HLA-B*07:02 [2]; [24]): ≥ 74.2 µM

Sequence: LFAGSIAAY
- Kd (HLA-B*35:01; [25]): 0.0522 µM
- Kd (HLA-B*15:01 [6]; [25]): 0.19 µM

Sequence: LPAGSPVAV
- Kd (HLA-B*35:01; [26]): 0.0027 µM
- Kd (HLA-B*51:01; [26]): 0.453 µM
- Kd (HLA-B*07:02 [12]): 0.24 µM

Sequence: LPFSASIVF
- Kd (HLA-B*07:02 [1]; source organism: Yersinia pestis CO92): 0.0888 µM

Sequence: QLREAATEA
- IC50 (HLA-B*07:02 [2]; [27]): 28.2 µM
- IC50 (HLA-B*15:01 [3]; [27]): 62.1 µM
- IC50 (HLA-B*08:01 [4]; [27]): ≥ 192 µM
- IC50 (HLA-A*02:01 [5]; [27]): 20 µM

Sequence: TNQLRSVGL
- IC50 (HLA-B*07:02 [2]; [27]): 64.3 µM
- IC50 (HLA-B*08:01 [4]; [27]): 32.9 µM

Sequence: TPAQLSMLL
- Kd (HLA-B*07:02 [1]; [28]): 0.215 µM
- Kd (HLA-B*51:01; [28]): ≥ 20 µM

Sequence: TPTHLSLAI
- Kd (HLA-B*35:01; [29]): 0.0168 µM
- Kd (HLA-B*15:01 [6]; [29]): ≥ 20 µM
- Kd (HLA-B*51:01; [29]): 2.92 µM

Sequence: VPHVIEEVM
- Kd (HLA-B*54:01): 12.5 µM
- Kd (HLA-B*07:02 [13]): 0.324 µM
- Kd (HLA-B*53:01): 1.09 µM
- Kd (HLA-B*35:01; [30]): 0.0002 µM
- Kd (HLA-B*51:01; [30]): ≥ 20 µM
- Kd (HLA-B*27:05): ≥ 20 µM
- Kd (HLA-A*11:01): ≥ 20 µM
- Kd (HLA-A*01:01): ≥ 20 µM
- Kd (HLA-B*48:01): ≥ 20 µM
- Kd (HLA-B*44:02): ≥ 20 µM
- Kd (HLA-B*15:01 [14]): ≥ 20 µM
- Kd (HLA-B*58:01): ≥ 20 µM
- Kd (HLA-A*31:01 [15]): ≥ 20 µM
- Kd (HLA-B*46:01 [16]): ≥ 20 µM
- Kd (HLA-B*57:01 [17]): ≥ 20 µM
- Kd (HLA-A*69:01 [18]): ≥ 20 µM
- Kd (HLA-A*03:01 [19]): ≥ 20 µM
- Kd (HLA-B*08:01 [20]): 3.8 µM
- Kd (HLA-B*40:01): ≥ 20 µM
- Kd (HLA-A*02:01 [21]): ≥ 20 µM

Sequence: WISHRPVVL
- IC50 (HLA-B*07:02 [2]; source organism: Variola virus): 7.13 µM
- IC50 (HLA-A*24:02; source organism: Variola virus): 21.5 µM
- IC50 (HLA-B*08:01 [4]; source organism: Variola virus): 25.7 µM
- IC50 (HLA-A*02:01 [5]; source organism: Variola virus): 1.11 µM

Sequence: YLFGGFSTL
- IC50 (HLA-B*07:02 [2]; source organism: Variola virus): 7.61 µM
- IC50 (HLA-B*15:01 [3]; source organism: Variola virus): 3.33 µM
- IC50 (HLA-B*08:01 [4]; source organism: Variola virus): ≥ 273 µM

Sequence: YVKQNTLKL
- Kd (HLA-B*07:02 [1]; source organism: Influenza A virus): 0.0718 µM

Reference: the Immune Epitope Database (IEDB)
